B1: HIV-1 Vif, wild type [HIV-1] / Flag-CBFβ (core-binding factor β), wild type [not stated] (parent complex)
chain 1: not shown
chain 2: MPRVVPDQRSKFENEEFFRKLSRECEIKYTGFRDRPHEERQARFQNACRDGRSEIAFVATGTNLSLQFFPASWQGEQRQTPSREYVDLEREAGKVYLKAPMILNGVCVIWKGWIDLQRLDGMGCLEFDEERAQQEDALAQQAFEEARRRTREFEDRDRSHREEMEVRVSQ

Variants of: B1
Assay: co-immunoprecipitation (Flag IP) with immunoblot quantification; 293T cells treated with CBFβ-specific siRNA; MG132 (5 μM) for 16-h; read off a plot

Row | Variant | percent of parent
1 | chain 2 I55A | ~68 % WT CBFβ
2 | chain 2 F68A | ~76 % WT CBFβ
